Experiment [1] deals with T1, NDC80 derived peptide … / HLA-A*02:01 complex (human).
T1 construct: whole, on cells; On pulsed T2 cells
In words: flow cytometry, antibody on pulsed T2 cells.

The target of experiment [2] is T2, NDC80 derived peptide … / HLA-A*02:01 complex (human).
T2 construct: whole, on cells; On pulsed T2 cells
Nature of the experiment: flow cytometry, antibody on pulsed T2 cells. The source holds these as a separate data set.

The target of experiment [3] is T3, NC1 peptide … / HLA-A*02:01 complex (human).
T3 construct: whole, on cells; On pulsed T2 cells; also pulled down from BV173 lysate (HLA-A*02) and presented on JMN cells
Nature of the experiment: immunopurification from BV173 cell lysate and LC-MS/MS, relative quantitation.
Method: (§1) 200M BV173 cells were lysed with 1% CHAPS, incubated for 1h in the cold room and spun down at 20,000 g for 50 min.

Experiment [4] has as its target T4, NC3 peptide … / HLA-A*02:01 complex (human).
T4 construct: whole, on cells; On pulsed T2 cells; also pulled down from BV173 lysate (HLA-A*02)
Described as above.
Method: as §1

Experiment [5] deals with T5, … / HLA-A*02:01 complex (human).
T5 construct: whole, on cells; On pulsed T2 cells; also pulled down from BV173 lysate (HLA-A*02)
The experiment is described as above.
Method: as §1

Experiment [6] concerns the target T6, … / HLA-A*02:01 complex (human).
T6 construct: whole, on cells; On pulsed T2 cells; also pulled down from BV173 lysate (HLA-A*02)
The experiment is described as above. The source holds these as a separate data set.
Method: as §1

Experiment [7] concerns the target T7, NDC80 Peptide A … / HLA-A*02:01 complex (human).
T7 construct: whole, on cells; On peptide-pulsed T2 cells (HLA-A*02:01+); also called NDC80/HLA-A*02:01 complex; NDC80/MHC I
Nature of the experiment: flow cytometry, PE-conjugated antibody on pulsed T2 cells.
Method: Pulsed T2 cells were harvested, washed with FACS buffer (PBS, 2% FBS and 0.01% sodium azide) and incubated for 30 min, light-protected, on ice with 2 μg/ml of the labeled antibodies. After incubation, cells were washed again with FACS buffer and resuspended in FACS buffer supplemented with DAPI. For the experiments described in FIGS. 10A-10I, incubation with the TCR mimic antibodies was performed at 2, 10 and 50 μg/ml. Cells were analyzed on an LSRFortessa™ (BD) flow cytometer; the data were analyzed using FlowJo™ v9 software.

B1: TCR mimic antibody clone 1 (mIgG1 clone 1 antibody) (antibody, V domains shown)
VH: EVQLVQSGAEVKKPGESLKISCEASGYSFSSNWIAWVRQRPGKGLEWMGIIYPGDSDTRYSPSFQGQVTMSADMSISTAYLQWSSLKASDTAMYYCARFAGPGMWSYGFDYWGQGTLVTVSS
VL: DIQLTQSPSSLSASVGDRVTITCRASQGIRNDLGWYQQKPGKAPKLMIYAASSLQSGVPSRFSGSGSGTDFTLTISSLQPEDFATYYCLQDYDYPLTFGGGTKLEIKR
notes: also called NDC80 clone 1 mAb; mouse version of NDC80 clone 1 mAb
With B1, the binding result in experiment [1] and in experiment [2] was “no binding” throughout. In addition, the “fold lower MS signal intensity than …” value in experiment [3] was 3 fold; in experiment [4], at least 3 fold; with … / HLA-A*02:01 complex [5], at least 3 fold; in the experiment with … / HLA-A*02:01 complex [6] it was at least 3 fold.

B2: TCR mimic antibody clone 11 (mIgG1 format) (antibody, V domains shown)
VH: QVQLVQSGAEVRKPGASVKVSCKASGYSFTSNGITWVRQAPGQGLEWMGWISGYNANTRYAQEFQARVTMTTDTSASTAYMELRSLRSDDTAVYYCARHAYWGGDSDYWGQGTLVTVSS
VL: NFMLTQPHSVSESPGKTVTISCTRSSGSIASNYVQWYQQRPGSAPTTVIYEDNQRPSGVPDRFSGSIDSSSNSASLTISGLKTEDEADYYCQSYDSSNVVFGGGTKLTVLG
notes: conjugated to PE for flow cytometry
Regarding B2, the binding result in experiment [7] is “binds”.

For the origin of these results see patent US20230374140A1 (Memorial Sloan Kettering, published 2023).
